Experimental data taken from paper PMC7129780 (Cytokine, 2019).

Tests used:
[1] = biological target: T1, IL10Rβ (UniProt Q08334 20-220); assay: BLI
T1 sequence (looked up): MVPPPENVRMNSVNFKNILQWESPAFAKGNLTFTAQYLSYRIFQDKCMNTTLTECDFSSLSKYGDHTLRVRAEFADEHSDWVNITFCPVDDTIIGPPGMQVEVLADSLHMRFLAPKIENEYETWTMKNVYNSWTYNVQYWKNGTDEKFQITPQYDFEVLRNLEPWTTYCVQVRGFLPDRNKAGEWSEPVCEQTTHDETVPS

[2] = biological target: T2, IFNλR1 (UniProt Q8IU57 21-228); assay: BLI
T2 sequence (looked up): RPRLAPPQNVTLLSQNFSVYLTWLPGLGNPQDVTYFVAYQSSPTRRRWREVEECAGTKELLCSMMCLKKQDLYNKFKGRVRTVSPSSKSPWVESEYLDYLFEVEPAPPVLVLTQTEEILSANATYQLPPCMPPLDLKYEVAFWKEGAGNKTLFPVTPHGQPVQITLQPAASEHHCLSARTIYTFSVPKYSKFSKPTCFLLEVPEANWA

B1: IFNλ4 variant M1 (L28N) (ligand, human, UniProt K9M1U5 22-179, looked up)
chain: AAPRRCNLSHYRSLEPRTLAAAKALRDRYEEEALSWGQRNCSFRPRRDPPRPSSCARLRHVARGIADAQAVLSGLHRSELLPGAGPILELLAAAGRDVAACLELARPGSSRKVPGAQKRRHKPRRADSPRCRKASVVFNLLRLLTWELRLAAHSGPCL
modifications: biotinylated (site not stated) for BLI; N-glycan at N61; mutated L28N not glycosylated
Kd [1]: 49 nM
Kd [2]: 14 nM

B2: IFNλ4 variant M3 (P73N) (ligand, human, UniProt K9M1U5 22-179, looked up)
chain: AAPRRCLLSHYRSLEPRTLAAAKALRDRYEEEALSWGQRNCSFRPRRDPPRNSSCARLRHVARGIADAQAVLSGLHRSELLPGAGPILELLAAAGRDVAACLELARPGSSRKVPGAQKRRHKPRRADSPRCRKASVVFNLLRLLTWELRLAAHSGPCL
modifications: biotinylated (site not stated) for BLI; N-glycans at N61 and at mutated P73N
Kd [1]: 51 nM
Kd [2]: 22 nM

B3: IFNλ4 variant M7 (L28N + P73N) (ligand, human, UniProt K9M1U5 22-179, looked up)
chain: AAPRRCNLSHYRSLEPRTLAAAKALRDRYEEEALSWGQRNCSFRPRRDPPRNSSCARLRHVARGIADAQAVLSGLHRSELLPGAGPILELLAAAGRDVAACLELARPGSSRKVPGAQKRRHKPRRADSPRCRKASVVFNLLRLLTWELRLAAHSGPCL
modifications: biotinylated (site not stated) for BLI; N-glycans at N61 and at mutated P73N; mutated L28N not glycosylated
Kd [1]: 49 nM
Kd [2]: 17 nM

B4: IFNλ4 WT purified from E. coli (eIFNλ4) (ligand, human, UniProt K9M1U5 22-179, looked up)
chain: AAPRRCLLSHYRSLEPRTLAAAKALRDRYEEEALSWGQRNCSFRPRRDPPRPSSCARLRHVARGIADAQAVLSGLHRSELLPGAGPILELLAAAGRDVAACLELARPGSSRKVPGAQKRRHKPRRADSPRCRKASVVFNLLRLLTWELRLAAHSGPCL
modifications: biotinylated (site not stated) for BLI
Kd [1]: 71 nM
Kd [2]: 19 nM
